According to the supplement of paper PMC9170038:

Test system: MS2 coat protein
Experiment: apparent KD of MS2 coat protein; designed switch direction (-1 OFF switch, 1 ON switch): -1; higher = weaker reporter binding
Summary of the method: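 On Illumina chips, designed RNA switches with common flanks were made by stalled E. coli RNA polymerase. Titrations with SNAP-549-labelled MS2 coat protein, doubling from 0.7 or 1.5 nM to 3 µM, were done with no input, with 200 uM small-molecule ligand, or with an oligonucleotide input. Apparent KD is the median per design over clusters, from curve fits of normalised cluster fluorescence.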

[1] = input ligand: microRNA oligo, concentration not stated
[2] = Eterna round: R95, input ligand: FMN 200 uM
[3] = Eterna round: R95, input ligand: microRNA oligo, concentration not stated
[4] = Eterna round: R95, input ligand: none

Sequence | apparent KD of MS2 coat protein (input ligand: FMN 200 uM) [nM] | apparent KD of MS2 coat protein (input ligand: none) [nM] | apparent KD of MS2 coat protein [1] [nM] | apparent KD of MS2 coat protein [2] [nM] | apparent KD of MS2 coat protein [3] [nM] | apparent KD of MS2 coat protein [4] [nM]
CAGUACUGAGGAUAUACAUGAGGAUCACCCAUGUGUCUUCAAUUAGGAAACUAGUUAUGUAGAAGGCAGUACUG [Omei Ex3 Mod of Eli 4.27 v9] (Eterna round: R97, puzzle: Exclusion 3) | 770 | 62.2 |  |  |  | 
CAGUACUGAGGAUAUACAUGAGGAUCACCCAUGUGUCUUCUCCUAGGAAACUAGGUAUGUAGAAGGCAGUACUG [Omei Ex3 Mod of Eli 4.27 v1] (Eterna round: R97, puzzle: Exclusion 3) | 1370 | 40 |  |  |  | 
CAGUACUGAGGAUAUACAUGAGGAUCACCCAUGUGUUCCAGCGAGGAAACUAGCAAAAGUAGAAGGCAGUACUG [salish99_ex3_r3_077] (Eterna round: R96, puzzle: Exclusion 3) | 242 | 18.5 | 15.6 |  |  | 
CAGUACUGAGGAUAUACAUGAGGAUCACCCAUGUGUUCCAGCGAGGAAACUAGCAAAAGUAGAAGGCAGUACUG [salish99_ex3_r3_077] (puzzle: Exclusion 3) |  |  |  | 199 | 18.4 | 17.5
CAGUACUGAGGAUAUACAUGAGGAUCACCCAUGUGUUCCAGGUAGGAAACUAGCAAAAGUAGAAGGCAGUACUG [salish99_ex3_r3_078] (Eterna round: R96, puzzle: Exclusion 3) |  |  | 17.5 |  |  | 
CAGUACUGAGGAUAUACAUGAGGAUCACCCAUGUGUUCCAGGUAGGAAACUAGCAAAAGUAGAAGGCAGUACUG [salish99_ex3_r3_078] (puzzle: Exclusion 3) |  |  |  | 99.7 | 20.2 | 20.4
CAGUACUGAGGAUAUACAUGAGGAUCACCCAUGUGUUCCUGCUAGGAAACUAGCAAAGGUAGAAGGCAGUACUG [Salish 065 m3] (Eterna round: R97, puzzle: Exclusion 3) | 464 | 27.9 |  |  |  | 
CAGUACUGAGGAUAUACAUGAGGAUCACCCAUGUGUUUUCUAUUAGGAAACUAGUUAUGUAGAAGGCAGUACUG [Omei Ex3 Mod of Eli 4.27 v11] (Eterna round: R97, puzzle: Exclusion 3) | 304 | 40 |  |  |  | 
CAGUCGAUAAGAUCAAUUAAUUAACAUGAGGAUCACCCAUGUGAGGAUAUCAGCUCGAUUAGAGCUGAGAAGGCACAACGACUG [ExNG3/17-A1] (Eterna round: R96, puzzle: Exclusion NG 3) | 232 | 46.8 | 31.3 |  |  | 
CAGUGACAUGAGGAUCACCCAUGUUAGGAUAUCCGCAAAGGGAGUAGGAUUCCCAUUUGGAGAAGGGACAGGUG [Eternabot (L1) Solution 95] (Eterna round: R97, puzzle: Exclusion 1) | 72.5 | 52.6 |  |  |  | 
CAUAAUUUUCGGAAUAUGUACAUGAGGAUCACCCAUGUGACGAGUUACAUGAUUAACAAGCUUUUUGCUCGUCUUAU [Sensor v3 - Turn-off variant 1 - 12] (puzzle: Sensor v3, turn-off variant 1) |  |  |  | 118 | 31.9 | 207
CAUACACAUGAGGAUCACCCAUGUGAGGAUAUGCGUACGUUGUCCGUAGGCGACGUGCGCAGAAGGCGCGAGGU [JL-ex1-3.16 Eli mod] (puzzle: Exclusion 1) |  |  |  |  | 28.4 | 
CAUCAGAUAGGAUAUACAGGCCCGUCUUUAUAUUGAUCCCGACAUGAGGAUCACCCAUGUAGAAGGAUCAGAUG [Mod 27 - Jieux - Exclusion 2] (Eterna round: R97, puzzle: Exclusion 2) | 21.2 | 16.1 |  |  |  | 
CAUCUGUGAGGAUAUGGUGAGUAGUGCCUGAGCGCUGCUCACCAGAAGGCACAUGAGGAUCACCCAUGUAUGAC [JL-ex4-2.01 denovo] (Eterna round: R96, puzzle: Exclusion 4) | 319 | 70 | 46.3 |  |  | 
CAUCUGUGAGGAUAUGGUGAGUAGUGCCUGAGCGCUGCUCACCAGAAGGCACAUGAGGAUCACCCAUGUAUGAC [JL-ex4-2.01 denovo] (puzzle: Exclusion 4) |  |  |  |  | 43.7 | 
CAUGAUCUUCGGAUCAUGUACAUGAGGAUCACCCAUGUGACGAGUUGAUCCUCAUACAAGCUUUUUGCUCGUCUUAU [Sensor v3 - Turn-off variant 1 - 15] (puzzle: Sensor v3, turn-off variant 1) |  |  |  | 26.8 | 16.7 | 24.4
CAUGAUUGGGAAGGAUAUUGACCUAGUUAGCGCCGAGAAGGUCCCUUUCACAUGAGGAUCACCCAUGUGAGUCUGGUGUUCGAG [Ex NG1 #96] (Eterna round: R96, puzzle: Exclusion NG 1) | 37.7 | 37.6 | 26.8 |  |  | 

Sequence | apparent KD of MS2 coat protein (input ligand: FMN 200 uM) [nM] | apparent KD of MS2 coat protein (input ligand: none) [nM] | apparent KD of MS2 coat protein [1] [nM] | apparent KD of MS2 coat protein [2] [nM] | apparent KD of MS2 coat protein [3] [nM] | apparent KD of MS2 coat protein [4] [nM]
CAUGUUGACAGAGGAUAUGCAAUGUGAUUUAGGGUAGAAGGCUGAGACAUGAGGAUCACCCAUGUGGGUGCGUUCUAGCGACAA [Atmala] (Eterna round: R96, puzzle: Exclusion NG 1) | 150 | 34 | 19.4 |  |  | 
CAUUAUUAUCGAGGAUAUCCUAUUGAAAUUCUGGGAGAAGGCGGACUCAACAUGAGGAUCACCCAUGUGAGACGGGUGCUAGGG [Ex NG1 #26] (Eterna round: R96, puzzle: Exclusion NG 1) |  |  | 19.6 |  |  | 
CCAAACUGAGGAUAUACAUGAGGAUCACCCAUGUGCCCGCGGUCAUAUGUAGCCUAGUGUAGAAGGCAGAAAAC [Rearle] (Eterna round: R96, puzzle: Exclusion 3) | 24.9 | 50.9 | 41.8 |  |  | 
CCAAACUGAGGAUAUACAUGAGGAUCACCCAUGUGCCCGCGGUCAUAUGUAGCCUAGUGUAGAAGGCAGAAAAC [Rearle] (puzzle: Exclusion 3) |  |  |  |  | 33 | 
CCAACUCAGGAGGAUAUCUCCGCGAGUUCACGAAGAGAAGGCCUGACAUGAGGAUCACCCAUGUGUCCAUGAGG [Eternabot (Original) Solution 8] (Eterna round: R97, puzzle: Exclusion 6) | 106 | 69.6 |  |  |  | 
CCAAGAUAGGAAGGAUAUUGUACAUGAGGAUCACCCAUGUAAUAAAUGAGGAUCACGGAUGUAGACAAGAAGGUCCGGAUAAGC [Ostracism 5 - Jieux - Exclusion NG 2] (Eterna round: R96, puzzle: Exclusion NG 2) | 84.1 | 45.1 | 25.1 |  |  | 
CCAAGCUUAUUCAUUAACCACAUGAGGAUCACCCAUGUCUAGGCAAUUAUGACUUGCCCAUCUGGUGCUCGUCUUAU [Sensor-V1 #32] (Eterna round: R97, puzzle: Sensor, turn-off variant 1) | 32 | 32.7 |  |  |  | 
CCAAGCUUGUUCAUUAACCACAUGAGGAUCACCCAUGUCUUGGCAAUUAUGACCUGCCCGUCAGGUGCUCGUCUUAU [Sensor-V1 #36] (Eterna round: R97, puzzle: Sensor, turn-off variant 1) | 45 | 48.1 |  |  |  | 
CCAAGCUUUUUCCUUAACAACAUGAGGAUCACCCAUGUGUAAGCUAUUCGGUUUGGGCUCUUUAGUGCUCGUCUUAU [malcom mod] (Eterna round: R97, puzzle: Sensor, turn-off variant 1) | 19.2 | 19.7 |  |  |  | 
CCACGACAUGAGGAUCACCCAUGUGAGGAUAUGGCCUGUAAGGCGUGAGCUGAAUCAAUCAGAAGGCGCGUGGG [salish99_ex1_r4_057] (Eterna round: R97, puzzle: Exclusion 1) | 92.4 | 50.6 |  |  |  | 
CCACGGUGAGGAUAUCAAAGAUUGCGCUCGGAAGGUCAAUUUGAGAAGGCACAUGAGGAUCACCCAUGUUAGCG [Eternabot (L2) Solution 40] (Eterna round: R97, puzzle: Exclusion 4) | 29.8 | 34.6 |  |  |  | 
CCACUGUCAGGAUAUCGUGCAUAAGCGUUUACACUUAUGUGCGAGAAGGGACAUGAGGAUCACCCAUGUAAACG [Omei Ex4 A28PK7] (Eterna round: R97, puzzle: Exclusion 4) | 628 | 391 |  |  |  | 
CCAGCGCGUGUGAGGAUAUGCUGGUCCUUGGAUCAGCAGAAGGCACAUGAGGAUCACCCAUGUGAGUGCGUUGG [JL bmx4 3.35] (puzzle: Brourd's mod of Exclusion 4) |  |  |  |  | 16.2 | 
CCAGGCAGUGUGAGGAUAUGCUGGUCCUUGGAUCAGCAGAAGGCACAUGAGGAUCACCCAUGUGAAUAGCUUGG [JL bmx4 3.25] (puzzle: Brourd's mod of Exclusion 4) |  |  |  | 105 | 20.5 | 21.8
CCAGGCAGUGUGAGGAUAUGCUGGUGGAUACAUCAGCAGAAGGCACAUGAGGAUCACCCAUGUGAAGAGCUUGG [Mat - Exclusion 4 - JL Mod - D99] (puzzle: Brourd's mod of Exclusion 4) |  |  |  | 136 | 19 | 20.5
CCAUAUAACUGAGGAUAUAAUCGCCACUGACGUUUAGAAGGCAGACAUGAGGAUCACCCAUGUGAUUUCUCAAUAUUAUACAUC [Prohibition 78 - Jieux - Exclusion NG 1] (Eterna round: R96, puzzle: Exclusion NG 1) | 1840 | 245 | 31.1 |  |  | 
CCAUCGAGUGUGAGGAUAUGCUGUUCGAAAGAGCAGCAGAAGGCACAUGAGGAUCACCCAUGUGGAUACGGUGG [Mat - Exclusion 4 - JL Mod - D82] (puzzle: Brourd's mod of Exclusion 4) |  |  |  |  | 30.6 | 
